Source: patent publication US20260062487A1 (GRITSTONE BIO, published 2026)

Assays:
[1] = biological target: T1, HLA-PEPTIDE target A*01:01_… (G2) on cells (human); experiment: flow cytometry, A375 cells engineered to express the G2 peptide
T1 construct: whole, on cells; also recovered from cell lysates in the IP-MS experiment; also called G2 pHLA; G2 target
Protocol: Tumor cells engineered to express target peptide were harvested, washed in PBS, and stained with eBioscience Fixable Viability Dye eFluor 450 for 15 minutes at room temperature. Following another wash in PBS+1-2% FBS, cells were resuspended with the indicated molecules at varying concentrations and incubated for 1 hour at 4° C. After another wash, PE-conjugated goat anti-human IgG secondary antibody (Jackson ImmunoResearch) was added at 1:100 to 1:200 for 30 minutes at 4° C. After washing in PBS+1-2% FBS, cells were resuspended in PBS+1-2% FBS and analyzed by flow cytometry. Flow cytometric analysis was performed on the Attune NxT Flow Cytometer (ThermoFisher) using the Attune NxT Software. Data was analyzed using FlowJo.

[2] = biological target: T2, biotinylated refolded G2-pHLA (A*01:01/b2m/…) (human, biotinylated at the C-terminal AviTag); experiment: BLI (ForteBio Octet HTX), biotinylated G2-pHLA captured on streptavidin SAX biosensor, antibody in solution, 1:1 kinetic model
T2 construct: Soluble complex caught on streptavidin sensors or MSD plates; also called G2-peptide A*01:01/b2m complex; WT
Description: (§1) The biosensors were then dipped in assay buffer for a baseline. […] The biosensors were finally dipped into wells containing assay buffer to measure the dissociation rate for another 50 seconds. Referencing was completed by having a biosensor with no immobilized ligand dipped into analyte. Kinetic data was processed with Octet™ software using a 1:1 kinetic model with errors within 10%, X² below 3, and R² above 0.9.

[3] = biological target: T2, biotinylated refolded G2-pHLA …; experiment: BLI (Octet), biotinylated pHLA on streptavidin sensor, bivalent antibody as analyte (apparent affinity)
Description: as §1

[4] = biological target: T2, biotinylated refolded G2-pHLA …; experiment: BLI (ForteBio Octet HTX), biotinylated G2-pHLA captured on streptavidin SAX biosensor, antibody in solution, 1:1 Fit
Description: as §1

[5] = biological target: T2, biotinylated refolded G2-pHLA …; experiment: BLI (ForteBio Octet HTX), biotinylated G2-pHLA captured on streptavidin SAX biosensor, antibody in solution, 1:2 Fit
[6] = biological target: biotinylated G5-pHLA (HLA-B*35:01 with …) (human); experiment: BLI (ForteBio Octet HTX), biotinylated G5-pHLA captured on streptavidin SAX biosensor, antibody in solution, 1:2 Fit
[7] = biological target: biotinylated G5-pHLA (HLA-B*35:01 with …) (human); experiment: BLI (ForteBio Octet HTX), biotinylated G5-pHLA captured on streptavidin SAX biosensor, antibody in solution, 1:1 Fit
Description: as §1

[8] = biological target: T1, HLA-PEPTIDE target A*01:01_… (G2) on …; experiment: flow cytometry, anti IgG PE, A375 9mer cells (1e6 copies per cell)
Protocol: A375 transduced with luciferase alone served as the negative control. […] Binding was determined by flow cytometery using an anti IgG-PE antibody for detection.

[9] = biological target: T3, CD3 on CD3+ Jurkat cells (human, UniProt P07766 23-207); experiment: flow cytometry, anti IgG PE, CD3+ Jurkat cells
T3 construct: whole, on cells
T3 sequence (P07766 23-207): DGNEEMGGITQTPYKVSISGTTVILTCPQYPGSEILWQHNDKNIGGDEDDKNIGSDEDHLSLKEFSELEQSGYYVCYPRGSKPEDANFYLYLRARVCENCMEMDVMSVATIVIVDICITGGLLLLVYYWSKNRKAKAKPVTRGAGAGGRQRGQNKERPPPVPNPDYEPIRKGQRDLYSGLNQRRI
Protocol: Increasing concentrations of the antibodies were incubated with CD3(+) and CD9(−) Jurkat cells. Binding was determined by flow cytometery using an anti IgG-PE antibody for detection.

B1: Format 4-G2(1H11) hOKT3a with engineered VH44/VL100 disulfide bond (DSB) (bispecific antibody, human IgG1, kappa, N297Q)
chain: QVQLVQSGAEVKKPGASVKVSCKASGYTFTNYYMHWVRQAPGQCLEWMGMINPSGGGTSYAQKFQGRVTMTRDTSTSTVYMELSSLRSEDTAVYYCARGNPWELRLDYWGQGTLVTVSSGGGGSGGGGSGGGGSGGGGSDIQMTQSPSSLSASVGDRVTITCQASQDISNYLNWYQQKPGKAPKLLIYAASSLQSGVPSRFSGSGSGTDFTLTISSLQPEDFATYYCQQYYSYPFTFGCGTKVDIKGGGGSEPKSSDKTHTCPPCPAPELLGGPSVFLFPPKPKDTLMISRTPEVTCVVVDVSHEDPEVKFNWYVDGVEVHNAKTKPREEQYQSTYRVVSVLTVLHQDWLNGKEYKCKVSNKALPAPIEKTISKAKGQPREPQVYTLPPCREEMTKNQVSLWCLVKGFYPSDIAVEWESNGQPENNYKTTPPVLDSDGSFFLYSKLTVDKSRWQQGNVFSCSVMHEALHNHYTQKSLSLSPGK
heavy: QVQLVQSGAEVKKPGASVKVSCKASGYTFTNYYMHWVRQAPGQCLEWMGMINPSGGGTSYAQKFQGRVTMTRDTSTSTVYMELSSLRSEDTAVYYCARGNPWELRLDYWGQGTLVTVSSGGGGSGGGGSGGGGSGGGGSDIQMTQSPSSLSASVGDRVTITCQASQDISNYLNWYQQKPGKAPKLLIYAASSLQSGVPSRFSGSGSGTDFTLTISSLQPEDFATYYCQQYYSYPFTFGCGTKVDIKGGGGSGGGGSQVQLVQSGAEVKKPGASVKVSCKASGYTFTRYTMHWVRQAPGQGLEWMGYINPSRGYTNYNQKFKDRVTLTTDKSSSTAYMELSSLRSEDTAVYYCARYYDDHYSLDYWGQGTLVTVSSASTKGPSVFPLAPSSKSTSGGTAALGCLVKDYFPEPVTVSWNSGALTSGVHTFPAVLQSSGLYSLSSVVTVPSSSLGTQTYICNVNHKPSNTKVDKRVEPKSCDKTHTCPPCPAPELLGGPSVFLFPPKPKDTLMISRTPEVTCVVVDVSHEDPEVKFNWYVDGVEVHNAKTKPREEQYQSTYRVVSVLTVLHQDWLNGKEYKCKVSNKALPAPIEKTISKAKGQPREPQVCTLPPSREEMTKNQVSLSCAVKGFYPSDIAVEWESNGQPENNYKTTPPVLDSDGSFFLVSKLTVDKSRWQQGNVFSCSVMHEALHNRFTQKSLSLSPGK
light: DIQMTQSPSSLSASVGDRVTITCSASSSVSYMNWYQQKPGKAPKRLIYDTSKLASGVPSRFSGSGSGTDFTLTISSLQPEDFATYYCQQWSSNPFTFGQGTKLEIKRTVAAPSVFIFPPSDEQLKSGTASVVCLLNNFYPREAKVQWKVDNALQSGNSQESVTEQDSKDSTYSLSSTLTLSKADYEKHKVYACEVTHQGLSSPVTKSFNRGEC
notes: also called 4-G2(1H11)-H44/L100 hOKT3a-TM; Format 4 G2(1H11)-hOKT3_DSBH44/L100
- EC50 [1]: 1750 nM
- koff [2]: 0.025 s⁻¹
- Kd [3]: 35.1 nM

B2: Format 4-G2(1H11) hOKT3a with shortened 10 amino acid L1 and L2 linkers (bispecific antibody, human IgG1, kappa, N297Q)
chain: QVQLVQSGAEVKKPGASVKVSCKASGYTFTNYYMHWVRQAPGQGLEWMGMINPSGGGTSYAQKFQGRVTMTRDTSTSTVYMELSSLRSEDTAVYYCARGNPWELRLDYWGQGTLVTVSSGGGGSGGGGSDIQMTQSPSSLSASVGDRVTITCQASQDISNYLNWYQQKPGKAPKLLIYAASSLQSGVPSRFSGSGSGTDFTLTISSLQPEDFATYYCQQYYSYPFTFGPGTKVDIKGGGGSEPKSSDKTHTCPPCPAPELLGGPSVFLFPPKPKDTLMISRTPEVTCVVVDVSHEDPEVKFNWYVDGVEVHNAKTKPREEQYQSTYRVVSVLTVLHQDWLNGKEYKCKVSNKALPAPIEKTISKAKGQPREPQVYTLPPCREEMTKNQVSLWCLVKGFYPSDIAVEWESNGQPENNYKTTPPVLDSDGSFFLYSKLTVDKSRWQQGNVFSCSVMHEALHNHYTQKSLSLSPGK
heavy: QVQLVQSGAEVKKPGASVKVSCKASGYTFTNYYMHWVRQAPGQGLEWMGMINPSGGGTSYAQKFQGRVTMTRDTSTSTVYMELSSLRSEDTAVYYCARGNPWELRLDYWGQGTLVTVSSGGGGSGGGGSDIQMTQSPSSLSASVGDRVTITCQASQDISNYLNWYQQKPGKAPKLLIYAASSLQSGVPSRFSGSGSGTDFTLTISSLQPEDFATYYCQQYYSYPFTFGPGTKVDIKGGGGSGGGGSQVQLVQSGAEVKKPGASVKVSCKASGYTFTRYTMHWVRQAPGQGLEWMGYINPSRGYTNYNQKFKDRVTLTTDKSSSTAYMELSSLRSEDTAVYYCARYYDDHYSLDYWGQGTLVTVSSASTKGPSVFPLAPSSKSTSGGTAALGCLVKDYFPEPVTVSWNSGALTSGVHTFPAVLQSSGLYSLSSVVTVPSSSLGTQTYICNVNHKPSNTKVDKRVEPKSCDKTHTCPPCPAPELLGGPSVFLFPPKPKDTLMISRTPEVTCVVVDVSHEDPEVKFNWYVDGVEVHNAKTKPREEQYQSTYRVVSVLTVLHQDWLNGKEYKCKVSNKALPAPIEKTISKAKGQPREPQVCTLPPSREEMTKNQVSLSCAVKGFYPSDIAVEWESNGQPENNYKTTPPVLDSDGSFFLVSKLTVDKSRWQQGNVFSCSVMHEALHNRFTQKSLSLSPGK
light: DIQMTQSPSSLSASVGDRVTITCSASSSVSYMNWYQQKPGKAPKRLIYDTSKLASGVPSRFSGSGSGTDFTLTISSLQPEDFATYYCQQWSSNPFTFGQGTKLEIKRTVAAPSVFIFPPSDEQLKSGTASVVCLLNNFYPREAKVQWKVDNALQSGNSQESVTEQDSKDSTYSLSSTLTLSKADYEKHKVYACEVTHQGLSSPVTKSFNRGEC
notes: also called 4-G2(1H11)-10AAL hOKT3a; G2(1H11)_10AAL
- Kd [4]: 6.35 nM
- koff [4]: 0.00608 s⁻¹
- kon [4]: 958000 M⁻¹ s⁻¹
- Kd [5]: 301 nM
- koff [5]: 0.0746 s⁻¹
- kon [5]: 248000 M⁻¹ s⁻¹

B3: 41-G5(1C12) hOKT3a (Format 4-G5(1C12) hOKT3a with shortened 10 amino acid L1 and L2 linkers) (bispecific antibody, human IgG1, kappa, N297Q)
chain: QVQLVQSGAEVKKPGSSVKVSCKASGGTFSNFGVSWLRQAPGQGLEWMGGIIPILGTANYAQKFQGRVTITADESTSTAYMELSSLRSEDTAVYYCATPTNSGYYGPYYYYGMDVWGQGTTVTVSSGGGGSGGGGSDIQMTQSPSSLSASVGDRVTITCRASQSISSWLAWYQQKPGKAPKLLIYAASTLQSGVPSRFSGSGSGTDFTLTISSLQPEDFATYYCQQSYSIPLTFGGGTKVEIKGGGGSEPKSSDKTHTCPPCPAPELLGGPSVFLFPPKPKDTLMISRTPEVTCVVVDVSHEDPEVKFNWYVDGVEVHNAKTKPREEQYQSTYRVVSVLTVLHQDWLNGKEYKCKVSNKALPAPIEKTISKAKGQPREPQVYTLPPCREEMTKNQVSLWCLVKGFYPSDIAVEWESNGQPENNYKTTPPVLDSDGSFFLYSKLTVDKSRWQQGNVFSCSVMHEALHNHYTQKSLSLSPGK
heavy: QVQLVQSGAEVKKPGSSVKVSCKASGGTFSNFGVSWLRQAPGQGLEWMGGIIPILGTANYAQKFQGRVTITADESTSTAYMELSSLRSEDTAVYYCATPTNSGYYGPYYYYGMDVWGQGTTVTVSSGGGGSGGGGSDIQMTQSPSSLSASVGDRVTITCRASQSISSWLAWYQQKPGKAPKLLIYAASTLQSGVPSRFSGSGSGTDFTLTISSLQPEDFATYYCQQSYSIPLTFGGGTKVEIKGGGGSGGGGSQVQLVQSGAEVKKPGASVKVSCKASGYTFTRYTMHWVRQAPGQGLEWMGYINPSRGYTNYNQKFKDRVTLTTDKSSSTAYMELSSLRSEDTAVYYCARYYDDHYSLDYWGQGTLVTVSSASTKGPSVFPLAPSSKSTSGGTAALGCLVKDYFPEPVTVSWNSGALTSGVHTFPAVLQSSGLYSLSSVVTVPSSSLGTQTYICNVNHKPSNTKVDKRVEPKSCDKTHTCPPCPAPELLGGPSVFLFPPKPKDTLMISRTPEVTCVVVDVSHEDPEVKFNWYVDGVEVHNAKTKPREEQYQSTYRVVSVLTVLHQDWLNGKEYKCKVSNKALPAPIEKTISKAKGQPREPQVCTLPPSREEMTKNQVSLSCAVKGFYPSDIAVEWESNGQPENNYKTTPPVLDSDGSFFLVSKLTVDKSRWQQGNVFSCSVMHEALHNRFTQKSLSLSPGK
light: DIQMTQSPSSLSASVGDRVTITCSASSSVSYMNWYQQKPGKAPKRLIYDTSKLASGVPSRFSGSGSGTDFTLTISSLQPEDFATYYCQQWSSNPFTFGQGTKLEIKRTVAAPSVFIFPPSDEQLKSGTASVVCLLNNFYPREAKVQWKVDNALQSGNSQESVTEQDSKDSTYSLSSTLTLSKADYEKHKVYACEVTHQGLSSPVTKSFNRGEC
notes: also called 4-G5(1C12)_10AAL hOKT3a; G5(1C12)_10AAL
- Kd [6]: 16.1 nM
- koff [6]: 0.00652 s⁻¹
- kon [6]: 405000 M⁻¹ s⁻¹
- Kd [7]: 2.2 nM
- koff [7]: 0.00279 s⁻¹
- kon [7]: 1.27e+06 M⁻¹ s⁻¹

B4: 41-E07 hSP34x (Format 41 31E07-CD3 bispecific antibody) (bispecific antibody)
chain: QVQLVQSGAEVKKPGASVKVSCKASGFTFTNYLIHWVRQAPGQGLEWMGWINPNSGGTNYAQRLQGRVTMTRDTSTSTVYMELSSLRSEDTAVYYCARDYGAGNDYWGQGTLVTVSSGGGGSGGGGSDIQMTQSPSSLSASVGDRVTITCRASQEIRRWLAWYQQKPGKAPKLLIYAASNLQSGVPSRFSGSGSGTDFTLTISSLQPEDFATYYCQQSYSTPYTFGQGTKLEIKGGGGSEPKSSDKTHTCPPCPAPEFEGGPSVFLFPPKPKDTLMISRTPEVTCVVVDVSHEDPEVKFNWYVDGVEVHNAKTKPREEQYNSTYRVVSVLTVLHQDWLNGKEYKCKVSNKALPASIEKTISKAKGQPREPQVYTLPPCREEMTKNQVSLWCLVKGFYPSDIAVEWESNGQPENNYKTTPPVLDSDGSFFLYSKLTVDKSRWQQGNVFSCSVMHEALHNHYTQKSLSLSPGK
heavy: QVQLVQSGAEVKKPGASVKVSCKASGFTFTNYLIHWVRQAPGQGLEWMGWINPNSGGTNYAQRLQGRVTMTRDTSTSTVYMELSSLRSEDTAVYYCARDYGAGNDYWGQGTLVTVSSGGGGSGGGGSDIQMTQSPSSLSASVGDRVTITCRASQEIRRWLAWYQQKPGKAPKLLIYAASNLQSGVPSRFSGSGSGTDFTLTISSLQPEDFATYYCQQSYSTPYTFGQGTKLEIKGGGGSGGGGSEVQLVESGGGLVQPGGSLRLSCAASGFTFSTYAMNWVRQAPGKGLEWVGRIRSKYNNYATYYADSVKGRFTISRDDSKNTLYLQMNSLRAEDTAVYYCVRHGNFGDSYVSWFAYWGQGTLVTVSSASTKGPSVFPLAPSSKSTSGGTAALGCLVKDYFPEPVTVSWNSGALTSGVHTFPAVLQSSGLYSLSSVVTVPSSSLGTQTYICNVNHKPSNTKVDKRVEPKSCDKTHTCPPCPAPEFEGGPSVFLFPPKPKDTLMISRTPEVTCVVVDVSHEDPEVKFNWYVDGVEVHNAKTKPREEQYNSTYRVVSVLTVLHQDWLNGKEYKCKVSNKALPASIEKTISKAKGQPREPQVCTLPPSREEMTKNQVSLSCAVKGFYPSDIAVEWESNGQPENNYKTTPPVLDSDGSFFLVSKLTVDKSRWQQGNVFSCSVMHEALHNRFTQKSLSLSPGK
light: QAVVTQEPSLTVSPGGTVTLTCGSSTGAVTTSNYANWVQQKPGKSPRGLIGGTNKRAPGVPARFSGSLLGGKAALTISGAQPEDEADYYCALWYSNHWVFGGGTKLTVLRTVAAPSVFIFPPSDEQLKSGTASVVCLLNNFYPREAKVQWKVDNALQSGNSQESVTEQDSKDSTYSLSSTLTLSKADYEKHKVYACEVTHQGLSSPVTKSFNRGEC
notes: also called 41-31E07-hSP34x
- EC50 (read off the curve) [8]: ~2 nM
- EC50 (read off the curve) [9]: ~6 nM
